The values that follow come from the supplement of paper PMC7125110.

B1: glmS ribozyme (parent)
chain: AUAAAAGCGCCAGAACUACAGAAAUGUAGUUGACGAGGAGGAGGUUUAUCGAAUUUUCGGCGGAUGCCUCCAAA

Holding throughout (details): with glucosamine-6-phosphate
Variants of B1 are the subject of data set [1]. The experiment in a line: kcat; higher = faster cleavage; RNA array. The method, boiled down: (§1)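 Ribozyme variants carrying barcodes were transcribed in situ on sequenced MiSeq chips by E. coli RNA polymerase and tracked at 37 °C with a hybridised Cy3 probe. They were exposed to 40 μM to 10 mM glucosamine-6-phosphate in HEPES/KCl/Mg(OAc)2 buffer. kobs came from exponential decay fits of normalised per-tile medians, and kcat and KM from weighted Michaelis–Menten fits.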

The variants in data set [2] derive from B1. The experiment in a line: KM; higher = weaker cofactor use; RNA array. The method, boiled down:
as §1

Variants of B1 are the subject of data set [3]. Kind of data set: self-cleavage kobs at 2500 uM GlcN6P; higher = faster cleavage; RNA array. The method, boiled down: as §1
In data set [4] the parent is B1. The experiment in a line: self-cleavage kobs at 10000 uM GlcN6P; higher = faster cleavage; RNA array. The method, boiled down: as §1
In data set [5] the parent is B1. Kind of data set: self-cleavage kobs at 160 uM GlcN6P; higher = faster cleavage; RNA array. The method, boiled down: as §1
Data set [6] covers variants of B1. The experiment in a line: self-cleavage kobs at 640 uM GlcN6P; higher = faster cleavage; RNA array. The method, boiled down: as §1
Data set [7] covers variants of B1. The experiment in a line: self-cleavage kobs at 40 uM GlcN6P; higher = faster cleavage; RNA array. The method, boiled down:
as §1

± gives the standard error. For part of these data: This sample holds only a part of the variants without activity.

For G32U U47C, the kcat in the data set with glucosamine-6-phosphate [1] came out at 0.000177 ± 4.1e-05 s⁻¹. For the same variant, the KM with glucosamine-6-phosphate [2] is 7840 ± 3400 µM. The “self-cleavage kobs at 2500 uM GlcN6P” value with glucosamine-6-phosphate [3] was 4.27e-05 ± 1.2e-05 s⁻¹. Also, the “self-cleavage kobs at 10000 uM GlcN6P” value in the data set with glucosamine-6-phosphate [4] came out at 9.94e-05 ± 1.4e-05 s⁻¹.

G44A U45C: the kcat with glucosamine-6-phosphate [1] came to 0.000855 ± 6.9e-05 s⁻¹. Also, the KM with glucosamine-6-phosphate [2] was determined as 2540 ± 420 µM. For the same variant, the “self-cleavage kobs at 160 uM GlcN6P” value with glucosamine-6-phosphate [5] was 4.01e-05 ± 1.9e-05 s⁻¹. In the data set with glucosamine-6-phosphate [6], the “self-cleavage kobs at 640 uM GlcN6P” value amounted to 0.000171 ± 2.7e-05 s⁻¹. In the data set with glucosamine-6-phosphate [3], the “self-cleavage kobs at 2500 uM GlcN6P” value turned out to be 0.000496 ± 0.00011 s⁻¹. Besides, the “self-cleavage kobs at 10000 uM GlcN6P” value in the data set with glucosamine-6-phosphate [4] turned out to be 0.000674 ± 6.5e-05 s⁻¹.

As to C61G G62C A64G U65A G66U C67G, in the data set with glucosamine-6-phosphate [1], the kcat came to 1.06e-05 ± 1.8e-06 s⁻¹. For the same variant, the “self-cleavage kobs at 640 uM GlcN6P” value with glucosamine-6-phosphate [6] was less than 1e-05 s⁻¹. Further, the “self-cleavage kobs at 10000 uM GlcN6P” value in the data set with glucosamine-6-phosphate [4] was less than 1e-05 s⁻¹.

With G13A U30C, the kcat with glucosamine-6-phosphate [1] is 0.000676 ± 0.00014 s⁻¹. Further, the KM in the data set with glucosamine-6-phosphate [2] stood at 2010 ± 830 µM. Moreover, the “self-cleavage kobs at 640 uM GlcN6P” value with glucosamine-6-phosphate [6] is 0.000158 ± 3.2e-05 s⁻¹. In addition, the “self-cleavage kobs at 2500 uM GlcN6P” value with glucosamine-6-phosphate [3] came out at 0.000511 ± 9.2e-05 s⁻¹. For the same variant, in the data set with glucosamine-6-phosphate [4], the “self-cleavage kobs at 10000 uM GlcN6P” value came to 0.00051 ± 9.1e-05 s⁻¹.

A15G U31G: in the data set with glucosamine-6-phosphate [1], the kcat came to 0.00736 ± 0.0015 s⁻¹. For the same variant, in the data set with glucosamine-6-phosphate [2], the KM stood at 4370 ± 1200 µM. In the data set with glucosamine-6-phosphate [7], the “self-cleavage kobs at 40 uM GlcN6P” value worked out at 7.87e-05 ± 9.4e-06 s⁻¹. The “self-cleavage kobs at 160 uM GlcN6P” value in the data set with glucosamine-6-phosphate [5] was determined as 0.000202 ± 3.2e-05 s⁻¹. Besides, in the data set with glucosamine-6-phosphate [6], the “self-cleavage kobs at 640 uM GlcN6P” value turned out to be 0.0011 ± 0.00015 s⁻¹. For the same variant, the “self-cleavage kobs at 2500 uM GlcN6P” value with glucosamine-6-phosphate [3] was 0.00262 ± 0.00033 s⁻¹. The “self-cleavage kobs at 10000 uM GlcN6P” value with glucosamine-6-phosphate [4] is 0.00513 ± 0.00051 s⁻¹.

As for U57G U69A, the kcat with glucosamine-6-phosphate [1] came out at 3.67e-05 ± 1.4e-05 s⁻¹. Besides, in the data set with glucosamine-6-phosphate [6], the “self-cleavage kobs at 640 uM GlcN6P” value is 5.54e-05 ± 2.1e-05 s⁻¹.

With G29U G38U U69G, the kcat with glucosamine-6-phosphate [1] was determined as 7.45e-05 ± 3.4e-05 s⁻¹. For the same variant, the “self-cleavage kobs at 160 uM GlcN6P” value in the data set with glucosamine-6-phosphate [5] stood at 9.11e-05 ± 1.8e-05 s⁻¹. Moreover, in the data set with glucosamine-6-phosphate [6], the “self-cleavage kobs at 640 uM GlcN6P” value is 0.00014 ± 6.1e-05 s⁻¹. In addition, the “self-cleavage kobs at 2500 uM GlcN6P” value in the data set with glucosamine-6-phosphate [3] stood at 0.000102 ± 4.6e-05 s⁻¹.

On to C10G C11U C67G, for which the kcat with glucosamine-6-phosphate [1] was 3.06e-05 ± 8.7e-06 s⁻¹. Besides, in the data set with glucosamine-6-phosphate [6], the “self-cleavage kobs at 640 uM GlcN6P” value came out at 5.14e-05 ± 2.4e-05 s⁻¹.

As to A64U G66A C67U, the kcat in the data set with glucosamine-6-phosphate [1] amounted to 1.79e-05 ± 6.9e-06 s⁻¹. Besides, the “self-cleavage kobs at 40 uM GlcN6P” value with glucosamine-6-phosphate [7] is less than 1e-05 s⁻¹.

In the case of G40A A42U, the kcat with glucosamine-6-phosphate [1] was determined as 7.24e-05 ± 1.6e-05 s⁻¹. The “self-cleavage kobs at 2500 uM GlcN6P” value in the data set with glucosamine-6-phosphate [3] was found to be 7.53e-05 ± 1.2e-05 s⁻¹. For the same variant, the “self-cleavage kobs at 10000 uM GlcN6P” value with glucosamine-6-phosphate [4] worked out at 5.75e-05 ± 1.2e-05 s⁻¹.

For the variant A39G A52U, in the data set with glucosamine-6-phosphate [1], the kcat was determined as 0.00125 ± 0.00024 s⁻¹. The “self-cleavage kobs at 40 uM GlcN6P” value in the data set with glucosamine-6-phosphate [7] is less than 1e-05 s⁻¹. In addition, the “self-cleavage kobs at 640 uM GlcN6P” value in the data set with glucosamine-6-phosphate [6] was 4.99e-05 ± 2.1e-05 s⁻¹. The “self-cleavage kobs at 2500 uM GlcN6P” value in the data set with glucosamine-6-phosphate [3] is 0.000222 ± 4.6e-05 s⁻¹. Further, in the data set with glucosamine-6-phosphate [4], the “self-cleavage kobs at 10000 uM GlcN6P” value was found to be 0.00054 ± 7.6e-05 s⁻¹.

U57C C68G: in the data set with glucosamine-6-phosphate [1], the kcat was found to be 1.42e-05 ± 2.7e-06 s⁻¹.

A14C G66A: in the data set with glucosamine-6-phosphate [1], the kcat amounted to 0.00362 ± 0.0004 s⁻¹. The KM with glucosamine-6-phosphate [2] worked out at 1940 ± 370 µM. The “self-cleavage kobs at 40 uM GlcN6P” value with glucosamine-6-phosphate [7] is 7.72e-05 ± 1.3e-05 s⁻¹. Further, the “self-cleavage kobs at 640 uM GlcN6P” value in the data set with glucosamine-6-phosphate [6] was determined as 0.000879 ± 0.00024 s⁻¹. The “self-cleavage kobs at 2500 uM GlcN6P” value with glucosamine-6-phosphate [3] was 0.00158 ± 0.00047 s⁻¹. Moreover, the “self-cleavage kobs at 10000 uM GlcN6P” value with glucosamine-6-phosphate [4] stood at 0.00316 ± 0.00037 s⁻¹.

Consider U31G U47G, for which the kcat in the data set with glucosamine-6-phosphate [1] is 0.00226 ± 0.00055 s⁻¹. Also, the KM with glucosamine-6-phosphate [2] came to 1880 ± 720 µM. For the same variant, the “self-cleavage kobs at 40 uM GlcN6P” value in the data set with glucosamine-6-phosphate [7] stood at 7.25e-05 ± 1.9e-05 s⁻¹. Also, the “self-cleavage kobs at 160 uM GlcN6P” value with glucosamine-6-phosphate [5] was determined as 0.000127 ± 3.3e-05 s⁻¹. For the same variant, the “self-cleavage kobs at 640 uM GlcN6P” value in the data set with glucosamine-6-phosphate [6] turned out to be 0.000663 ± 0.00011 s⁻¹. Also, the “self-cleavage kobs at 2500 uM GlcN6P” value with glucosamine-6-phosphate [3] came to 0.0016 ± 0.00031 s⁻¹. Moreover, in the data set with glucosamine-6-phosphate [4], the “self-cleavage kobs at 10000 uM GlcN6P” value amounted to 0.00176 ± 0.00028 s⁻¹.

For the variant U47G A52C, the kcat in the data set with glucosamine-6-phosphate [1] was determined as 1.4e-05 ± 1.8e-06 s⁻¹.

With C61G C70G, the turnover number (kcat) with glucosamine-6-phosphate [1] was determined as 1.85e-05 ± 5.6e-06 s⁻¹.

Turning to U31G U56C, the kcat with glucosamine-6-phosphate [1] was determined as 0.000772 ± 3.5e-05 s⁻¹. In addition, in the data set with glucosamine-6-phosphate [2], the KM was 2210 ± 180 µM. Moreover, the “self-cleavage kobs at 160 uM GlcN6P” value in the data set with glucosamine-6-phosphate [5] worked out at 4.9e-05 ± 1.7e-05 s⁻¹. The “self-cleavage kobs at 640 uM GlcN6P” value with glucosamine-6-phosphate [6] was 0.000179 ± 2.9e-05 s⁻¹. Further, in the data set with glucosamine-6-phosphate [3], the “self-cleavage kobs at 2500 uM GlcN6P” value came out at 0.000413 ± 0.00012 s⁻¹. In addition, the “self-cleavage kobs at 10000 uM GlcN6P” value with glucosamine-6-phosphate [4] is 0.000628 ± 9.2e-05 s⁻¹.

As to A12G G41C, in the data set with glucosamine-6-phosphate [1], the kcat was determined as 0.000171 ± 2.4e-05 s⁻¹. The “self-cleavage kobs at 40 uM GlcN6P” value with glucosamine-6-phosphate [7] is less than 1e-05 s⁻¹. For the same variant, the “self-cleavage kobs at 2500 uM GlcN6P” value with glucosamine-6-phosphate [3] is 3.14e-05 ± 1.1e-05 s⁻¹. In addition, the “self-cleavage kobs at 10000 uM GlcN6P” value in the data set with glucosamine-6-phosphate [4] is 8.02e-05 ± 1.1e-05 s⁻¹.

Take A33G G63C: the kcat with glucosamine-6-phosphate [1] was less than 1e-05 s⁻¹. Besides, in the data set with glucosamine-6-phosphate [7], the “self-cleavage kobs at 40 uM GlcN6P” value was less than 1e-05 s⁻¹. Besides, the “self-cleavage kobs at 640 uM GlcN6P” value with glucosamine-6-phosphate [6] is less than 1e-05 s⁻¹.
